Assay: soluble on expression in E. coli; label from the status in PepcDB or PDB records

| Sequence | soluble on expression in E. coli |
| --- | --- |
| MSLQTLSIQHGTLVTMDQYRRVLGDSWVHVQDGRIVALGVHAESVPPPADRVIDARGKVVLPGFINAHTHVNQILLRGGPSHGRQLYDWLFNVLYPGQKAMRPEDVAVAVRLYCAEAVRSGITTINDNADSAIYPGNIEAAMAVYGEVGVRVVYARMFFDRMDGRIQGYVDALKARSPQVELCSIMEETAVAKDRITALSDQYHGTAGGRISVWPAPAITPAVTVEGMRWAQAFARDRAVMWTLHMAESDHDERLHWMSPAEYMECYGLLDERLQVAHCVYFDRKDVRLLHRHNVKVASQVVSNAYLGSGVAPVPEMVERGMAVGIGTDDGNCNDSVNMIGDMKFMAHIHRAVHRDADVLTPEKILEMATIDGARSLGMDHEIGSIETGKRADLILLDLRHPQTTPHHHLAATIVFQAYGNEVDTVLIDGNVVMENRRLSFLPPERELAFLEEAQSRATAILQRANMVANPAWRSLEGHHHHHH | soluble |
| MSLQWECWPSLPCWRCFAASGRITLSIKRFTQNSRRHDMKITKINAIPLSYRLPEGKTVTMGVGSTIKRDAIIIRVETSEGITGYGEAHPGRSPGAITSLIHNTIAPMLIGMKATDCVGAWQRVHRMQLSSHGLGAGAALAISGIDMALWDIRGKAANMPLYELLGGSKRRIPAYAGGIALGYQPKESLAEEAQEYIARGYKALKLRIGDAARVDIERVRHVRKVLGDEVDILTDANTAYTMADARRVLPVLAEIQAGWLEEPFACNDFASYREVAKITPLVPIAAGENHYTRFEFGQMLDAGAVQVWQPDLSKCGGITEGIRIAAMASAYRIPINAHSSATGLNHAATIHFLAATENAGYFEACVSKFNPFRDMFGTSFEIGADGCVEPPDAPGLGIEVDESIFEKYPAVDGPGYVVKFEGHHHHHH | soluble |
| MSLRATWGDVRQGLWMSLTRAGLLHLNADPDPKNWRPHILVLSGAPRRRWPVIELASALTHNQALMTVGTVLRPSEASDFEAQREAEATLREYLGSRGVQSLVRTTTAEDPFAGGERLIEDYGLGVLKPNTIMLGHTEDPTHHEQFCTLIKHLYAARRNVAVLRGGNQGFGNRERIDVWWSGLKGNGGLMKILAYLLQTNLEWQNAQVRVNVVADDDEEAEEQRQTVGPILDQLRTGAALNVIEADGRIFDEIVHDASADADIVFLGMATPDEEGDYVTYYTRLHERTAGLPPTVFVLAAEEISFRDVLALEHHHHHH | not soluble |
| MSLRETLKTIAETLNVTHTTVSNVFNRPEKVSPELREKILAYAESINYHGPAGAGRFLRTGKCGTLGVIFNDNLSYVFSDRHDIALMRGIAEECEKNGINIALMPLKTNNALKKRMMGALVDGYILNATYNNDEVVQAALTSGLPVITTDIKLQNFTCVSIDDGAAMQAICHHLLAAGHKKFGIVSFPVKRLPGELTSLAEFSTDYDNGVAFGRISACITALSDAGIDLHTSYVAEQPHSETGGEKAAKALLAKEPGISAIICLSDRFAFGVYQFCQDHNIPVPGQIAITGFDDIDIQDPPVGLTTIRQPTVLKGREAARALISGQLDNDISLDFELVVRDSAEGHHHHHH | soluble |
| MSLRFVFDIDGTLCFDGRLIDQTIIDTLLQLQHDGHELIFASARPIRDLLPVLPSVFHQHTLIGANGAMISQQSKISVIKPIHTDTYHHILKIIQKYELDYIIDDDWNYAAQLDAENAIFERLDPHKLASCIDVANIDTPIKIILLNIDPAQITTILDELNKYHQELEMIHHSNEYNIDITAQNINKYTALQYIFDADVKYIAFGNDHNDIFMLQHASSGYIIGPSEAYTHAILKLDKIKHINNNTQAICKVLKSYKEGHHHHHH | soluble |
| MSLRGGAQALECYSCVQKADDGCSPNKMKTVKCAPGVDVCTEAVGAVETIHGQFSMAVRGCGSGLPGKNDRGLDLHGLLAFIQLQQCAQDRCNAKLNLTSRALDPAGNESAYPPNGVECYSCVGLSREACQGTSPPVVSCYNASDHVYKGCFDGNVTLTAANVTVSLPVRGCVQDEFCTRDGVTGPGFTMSGSCCQGSRCNSDLRNKTYFSPREGHHHHHH | not soluble |
| MSLRGGEDSPVDGARQAAANVFGPIENGVSSAVDPVGNAVSAVRDSGDRHDRLARLETENAALKAKSGSDERGRSRLKQFDKMLGLAGAGQYGIKGAQVIAIGAAQGFSWTITIDAGANDGVKRDMTVLNGDGLVGRVTTVGPNTATVLLANDPDFTVGTRMESGDELGFASGQGSRPLRVELLNGKADVKKGDRLVTFGSQADKPFVPGVPVGTITRVDPNGGDLTRILDVTPFVSFTKLDIVGVVVQAPSKDPRDTVLPEKKQPKPTPTVTVTVTPGADPEGQTRNDEAGQDEAAGQNDATGQNDQTEQQNEQPEPEGHHHHHH | soluble |

Reference: the DeepSol protein solubility set
